Measurements as given in the supplement of paper PMC9112550, “Optimization of the antimicrobial peptide Bac7 by deep mutational scanning” (BMC Biology, 2022).

tested on: Escherichia coli TOP10; test: shrunken log2 fold change of peptide-encoding DNA abundance (4.5 h post-induction vs induction); higher = less antimicrobial activity (less host growth inhibition); details: time post-induction: 4.5 h; library: site-saturation at positions 5, 18, 19, 20
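Also: peptides expressed intracellularly from a pBAD plasmid library in pooled LB shake-flask culture, induced with 0.3% L-arabinose, DNA abundance read by NGS, three biological replicates, DESeq2 with apeglm shrinkage.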

Sequence | shrunken log2 fold change
RRIRDRPPRLPRPRPRPNYGPRP | -0.0075
RRIRVRPPRLPRPRPRPSKCPRP | -0.0461
RRIRKRPPRLPRPRPRPFMWPRP | -0.078
RRIRYRPPRLPRPRPRPQSTPRP | -1.2
RRIRRRPPRLPRPRPRPPSSPRP | 0.303
RRIRDRPPRLPRPRPRPQLAPRP | 0.505
RRIRIRPPRLPRPRPRPNSCPRP | -0.184
RRIRHRPPRLPRPRPRPLLDPRP | -0.117
RRIRTRPPRLPRPRPRPEMRPRP | 0.825
RRIRGRPPRLPRPRPRPSPSPRP | 0.649
RRIRHRPPRLPRPRPRPEMPPRP | -0.177
RRIRKRPPRLPRPRPRPMLKPRP | 0.954
RRIRCRPPRLPRPRPRPVQMPRP | 0.239
RRIRNRPPRLPRPRPRPRWAPRP | 0.417
RRIRARPPRLPRPRPRPSQTPRP | 0.416
RRIRLRPPRLPRPRPRPPKYPRP | -0.154
RRIRNRPPRLPRPRPRPDILPRP | -0.156
RRIRTRPPRLPRPRPRPLIQPRP | -0.197
RRIRTRPPRLPRPRPRPAEPPRP | 0.392
RRIRNRPPRLPRPRPRPITYPRP | -1.09
RRIRRRPPRLPRPRPRPTNQPRP | 0.111
RRIRMRPPRLPRPRPRPAHMPRP | 0.281

Sequence | shrunken log2 fold change
RRIRWRPPRLPRPRPRPAQWPRP | 0.287
RRIRVRPPRLPRPRPRPSYYPRP | -0.674
RRIRMRPPRLPRPRPRPYQTPRP | -0.0231
RRIRMRPPRLPRPRPRPAVGPRP | 0.5
RRIRARPPRLPRPRPRPWAVPRP | 0.295
RRIRWRPPRLPRPRPRPMCEPRP | -0.0562
RRIRGRPPRLPRPRPRPACCPRP | 0.875
RRIRERPPRLPRPRPRPMITPRP | -0.0683
RRIRLRPPRLPRPRPRPAPTPRP | 0.28
RRIRDRPPRLPRPRPRPWTYPRP | -0.834
RRIRTRPPRLPRPRPRPCRFPRP | -0.265
RRIRHRPPRLPRPRPRPYVAPRP | -0.912
RRIRYRPPRLPRPRPRPSHMPRP | -0.0573
RRIRHRPPRLPRPRPRPAKQPRP | 0.307
RRIRARPPRLPRPRPRPIMTPRP | 0.0421
RRIRVRPPRLPRPRPRPIQHPRP | -0.415
RRIRPRPPRLPRPRPRPECFPRP | 0.122
RRIRCRPPRLPRPRPRPELWPRP | 0.732
RRIRTRPPRLPRPRPRPEMCPRP | -0.00146
RRIRVRPPRLPRPRPRPHQPPRP | 0.0593
RRIRVRPPRLPRPRPRPETPPRP | 1.14
RRIRRRPPRLPRPRPRPYAEPRP | 0.132

Sequence | shrunken log2 fold change
RRIRVRPPRLPRPRPRPICDPRP | -0.0949
RRIRQRPPRLPRPRPRPHKQPRP | -0.608
RRIRGRPPRLPRPRPRPKEVPRP | 0.00437
RRIRFRPPRLPRPRPRPGQVPRP | -0.131
RRIRQRPPRLPRPRPRPADVPRP | 0.0705
RRIRHRPPRLPRPRPRPHYMPRP | -0.854
RRIRLRPPRLPRPRPRPRWLPRP | 0.398
RRIRVRPPRLPRPRPRPWTWPRP | -0.135
RRIRLRPPRLPRPRPRPAHMPRP | -0.0737
RRIRYRPPRLPRPRPRPEADPRP | 0.123
RRIRPRPPRLPRPRPRPRCPPRP | 0.208
RRIRSRPPRLPRPRPRPRQIPRP | -0.066
RRIRLRPPRLPRPRPRPVLAPRP | 0.104
RRIRVRPPRLPRPRPRPYKLPRP | -0.745
RRIRARPPRLPRPRPRPRSPPRP | 0.871
RRIRVRPPRLPRPRPRPDCWPRP | 0.135
RRIRCRPPRLPRPRPRPYISPRP | -0.637
RRIRTRPPRLPRPRPRPMYCPRP | -0.873
RRIRMRPPRLPRPRPRPKCPPRP | 0.108
RRIRPRPPRLPRPRPRPSKQPRP | -0.116
RRIRIRPPRLPRPRPRPAESPRP | 0.0486
RRIRARPPRLPRPRPRPKIEPRP | 0.173

Sequence | shrunken log2 fold change
RRIRDRPPRLPRPRPRPMANPRP | -0.0338
RRIRFRPPRLPRPRPRPCYPPRP | -0.451
RRIRSRPPRLPRPRPRPNSHPRP | -0.402
RRIRYRPPRLPRPRPRPYTAPRP | 0.00143
RRIRFRPPRLPRPRPRPNDSPRP | -0.0675
RRIRDRPPRLPRPRPRPHMEPRP | 0.198
RRIRMRPPRLPRPRPRPVMCPRP | 0.321
RRIRLRPPRLPRPRPRPEYCPRP | 0.0552
RRIRQRPPRLPRPRPRPTETPRP | 0.0687
RRIRSRPPRLPRPRPRPQHLPRP | -0.372
RRIRPRPPRLPRPRPRPGNGPRP | 0.349
RRIRGRPPRLPRPRPRPFDCPRP | -0.208
RRIRQRPPRLPRPRPRPYMKPRP | -0.521
RRIRNRPPRLPRPRPRPRGDPRP | 0.131
RRIRTRPPRLPRPRPRPTQAPRP | 0.111
RRIRQRPPRLPRPRPRPANIPRP | -0.275
RRIRLRPPRLPRPRPRPIVCPRP | 0.0348
RRIRERPPRLPRPRPRPYIMPRP | -0.542
RRIRRRPPRLPRPRPRPTTVPRP | 0.792
RRIRERPPRLPRPRPRPLIDPRP | -0.352
RRIRVRPPRLPRPRPRPAGEPRP | 0.339
RRIRERPPRLPRPRPRPDHQPRP | -0.223

Sequence | shrunken log2 fold change
RRIRYRPPRLPRPRPRPTGQPRP | 0.0557
RRIRMRPPRLPRPRPRPENHPRP | 0.0929
RRIRCRPPRLPRPRPRPMQLPRP | -0.239
RRIRKRPPRLPRPRPRPTIWPRP | 0.319
RRIRYRPPRLPRPRPRPDGTPRP | 0.0319
RRIRIRPPRLPRPRPRPIRDPRP | -0.0759
RRIRARPPRLPRPRPRPHGAPRP | 0.52
RRIRRRPPRLPRPRPRPYVYPRP | -0.209
RRIRSRPPRLPRPRPRPQPIPRP | 0.000168
RRIRWRPPRLPRPRPRPQDSPRP | 0.0627
RRIRGRPPRLPRPRPRPPGFPRP | 0.484
RRIRWRPPRLPRPRPRPEIVPRP | -0.00443
RRIRKRPPRLPRPRPRPHDKPRP | 0.176
RRIRKRPPRLPRPRPRPDMCPRP | 0.217
RRIRARPPRLPRPRPRPTALPRP | 0.513
RRIRGRPPRLPRPRPRPKEGPRP | 1.62
RRIRERPPRLPRPRPRPHKEPRP | -0.189
RRIRLRPPRLPRPRPRPEWRPRP | -0.0482
RRIRFRPPRLPRPRPRPMVDPRP | -0.304
RRIRTRPPRLPRPRPRPAVYPRP | -0.181
RRIRWRPPRLPRPRPRPFLPPRP | -0.687
